{
  "source": "paper PMC10069731",
  "about": "(Communications Biology, 2023)",
  "binders": {"B1": {"name": "rabbit monoclonal antibody (RmAb) 1H1, IgG (antibody, V domains shown)", "VH": "QSLEESGGDLVKPGASLTLTCTASGFSFSSGYDMCWVRQAPGKGLEWIACIGTGSSGNIYYASWAKGRFTISKTSSTTVTLQMTSLTAADTATYFCARDDADYAGPDYFNLWGPGTLVTVSS", "VL": "DIVMTQTPASVSEPVGGTVTIKCQASESISNWLAWYQQKPGQPPKLLIYAAFTLASGVPSRFKGSGSGTQFTLTINGVECADAATYYCQQTYSSRDVDNVFGGGTEVVVK"}},
  "key": {"[1]": {"target": "SARS-CoV-2 WT spike ECD, 6P-stabilized (SARS-CoV-2, WT (ancestral), UniProt P0DTC2, stabilised)", "experiment": "ELISA", "settings": "both partners purified"}, "[2]": {"target": "SARS-CoV-2 Omicron BA.4/5 RBD (SARS-CoV-2 Omicron BA.4/5, strain)", "experiment": "BLI", "settings": "both partners purified"}},
  "data": [
    {"binder": "B1", "values": [
      {"measurement": "binding result", "setting": "[1]", "value": "binds"},
      {"measurement": "Kd", "setting": "[2]", "value": 1.33, "unit": "nM"}
    ]}
  ]
}
